{"source": "paper PMC6170424", "key": {"[1]": {"target": "Ef-SOD1a^Δ (Euplotes focardii Cu,Zn superoxide dismutase 1a without its signal peptide) (Euplotes focardii)", "assay": "SEC; comparison of the SEC chromatographic profiles of Ef-SOD1a and Ef-SOD1b; data not shown"}, "[2]": {"target": "Ef-SOD1b (Euplotes focardii Cu,Zn superoxide dismutase 1b) (Euplotes focardii)", "assay": "SEC-MALS; 200 µl of protein (1 mg/ml) on Superose12 10/300 GL; 50 mM sodium phosphate buffer, NaCl 150 mM, pH 7.5"}, "[3]": {"target": "Ef-SOD2^Δ (Euplotes focardii Mn superoxide dismutase without its mitochondrial signal peptide) (Euplotes focardii)", "assay": "SEC-MALS; 200 µl of protein (1 mg/ml) on Superose12 10/300 GL; 50 mM sodium phosphate buffer, NaCl 150 mM, pH 7.5"}}}
{"substance": "Ef-SOD1a^Δ (Euplotes focardii Cu,Zn superoxide dismutase 1a without its signal peptide) (enzyme)", "values": [{"measurement": "stoichiometry N", "setting": "[1]", "result": 2}]}
{"substance": "Ef-SOD1b (Euplotes focardii Cu,Zn superoxide dismutase 1b) (enzyme)", "values": [{"measurement": "stoichiometry N", "setting": "[2]", "result": 2}]}
{"substance": "Ef-SOD2^Δ (Euplotes focardii Mn superoxide dismutase without its mitochondrial signal peptide) (enzyme)", "values": [{"measurement": "stoichiometry N", "setting": "[3]", "result": 4}]}
